The data set concerns MS2 coat protein. As to the kind of experiment: apparent KD of MS2 coat protein; higher = weaker reporter binding. The settings on record: Eterna round: R107. The method in brief: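 For every design, apparent KD is the median of normalised binding-curve fits from its clusters. The RNA switches were transcribed on-chip from Illumina sequencing clusters and titrated with SNAP-549-labelled MS2 coat protein (twofold steps, 0.7 or 1.5 nM to 3 µM; 0.8–1.5 h to 10–20 min per step). Titrations used 100 mM Tris-HCl pH 7.5, 80 mM KCl, 4 mM MgCl2, without or with constant ligand.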

The mark [1] stands for this setting: input ligand: theophylline 20 uM.
[2] abbreviates: input ligand: theophylline 2 mM.
Setting [3] is: input ligand: tryptophan 2.4 mM.

As to “CUGCCAUGCAGAGAUACCAGUGCGCUCAGCACAUGAGGAUCACCCAUGUAGGAUGCCAAUCACCCUUGGCAGCUCUGCAUGGCAG [~`&)_]”, the “apparent KD of MS2 coat protein” value was found to be 15.5 nM (input ligand: arginine 13.2 mM); 15.7 nM (input ligand: none); 22.8 nM under setting [1]; 12.8 nM under setting [2]; 16.3 nM under setting [3].

As for “GGACUAACCAGAAGGAGCGACGCGCAGAAACUGCAAAAUCCUCCGCACGAGGAUCACCCGUGUCAGGUAGGUCGCUGGUUAGUCG”, the “apparent KD of MS2 coat protein” value runs as follows: (input ligand: arginine 13.2 mM) 21.9 nM; (input ligand: none) 29.6 nM; under setting [1], 34.5 nM; under setting [2], 32.6 nM; under setting [3], 27.7 nM.

For the sequence “AGAUUCGACACGGCCGCCACUUGGAGUGGCUGCUAGCAUGUUACACAUGAGGAUCACCCAUGUCUAAGGACCGGGUGUUGAGUCU [XTryp B #24]”, the “apparent KD of MS2 coat protein” value worked out at 30.7 nM (input ligand: arginine 13.2 mM), 79.2 nM under setting [1] and 63.5 nM under setting [2].

With “GCACAAGAUGGAAGGAGCGCUGGUAACGGUCACAUGAGGAUCACCCAUGUGCUCCUUGCCGAGCAGGUAGGUCGCCAUCUUGUGC [SSAB NP+V+V2 #6 +-Same Structure]”, the “apparent KD of MS2 coat protein” value was 34.1 nM (input ligand: arginine 13.2 mM); 44.4 nM (input ligand: none); 46.1 nM under setting [1]; 45.3 nM under setting [2]; 35.3 nM under setting [3].

“ACUCUGUCGGGUGAUACCAGCCUCGGCACAUCUCGCGCCGAACAUGAGGAUCACCCAUGUGGCCCUUGGCAGCACAUGACAAAUC [Rimalearve]”: the “apparent KD of MS2 coat protein” value was found to be 64.1 nM (input ligand: arginine 13.2 mM), 618 nM under setting [1] and 512 nM under setting [3].

In the case of “AAUAACAUGAGGAUCACCCAUGUAACCGAAGGAGCGGCAAUAAAGCCAGGUAGGUCGCGGAAUAACAUGAGGAUCACCCAUGUAA [Exclusion Arginine A]”, the “apparent KD of MS2 coat protein” value runs as follows: (input ligand: arginine 13.2 mM) 55.5 nM; (input ligand: none) 138 nM; under setting [1], 112 nM; under setting [2], 125 nM; under setting [3], 94.7 nM.

Turning to “GGCUGUCAUAGGAGGUCAAAUAUACUCGAAGGAGCGUCAUAGUAGGCAGGUAGGUCGCGAGACAUGAGGAUCACCCAUGUAGAGA [xkxmullin]”, the “apparent KD of MS2 coat protein” value reads like this: (input ligand: arginine 13.2 mM) 37.7 nM; (input ligand: none) 69.1 nM; under setting [1], 122 nM; under setting [2], 52.9 nM; under setting [3], 30.6 nM.

As to “UAUGCACAUGAGGAUCACCCAUGUAUGGAAGGAGCGGUGAAUGAACCAGGUAGGUCGCCAUGGUGAGGAUCAUCUAUGUAUUCGU [Exclusion - Arginine A (Freestyle 8)]”, the “apparent KD of MS2 coat protein” value runs as follows: (input ligand: arginine 13.2 mM) 49.1 nM; (input ligand: none) 81 nM; under setting [1], 101 nM; under setting [2], 117 nM; under setting [3], 71.7 nM.

As for “AGCAACAAGUCGGCCGCCACUCAUAUUACAUGAGGAUCACCCAUGUUUACAUCAAGGUCAUAAUAGAGGACCGGGACAGUUGCAU [JR_SSTryptoB_Sub017]”, the “apparent KD of MS2 coat protein” value reads like this: (input ligand: arginine 13.2 mM) 24.5 nM; under setting [1], 39.3 nM; under setting [2], 41.5 nM.

On to “GUAGCGACGACGGCCGCCACUCACACGAGAGGGUAGACCAACCUUCACAUGAGGAUCACCCAUGUGAGGACCGGGUUGUCGGUAC [Exclusion - Tryptophan B]”, for which the “apparent KD of MS2 coat protein” value (input ligand: arginine 13.2 mM) came out at 20 nM, the “apparent KD of MS2 coat protein” value under setting [1] was 26.6 nM and the “apparent KD of MS2 coat protein” value under setting [2] came out at 33 nM.

For the sequence “CAUGAAGUAACUGAUACCAGUGUACUGACAUGAGGAUCACCCAUGUUGGGUUUUGUUGUACACCCUUGGCAGCAGAAUCUUUAUG [AstrosExyTheB#4]”, the “apparent KD of MS2 coat protein” value is, setting by setting: (input ligand: arginine 13.2 mM) 50 nM; under setting [1], 70.8 nM; under setting [3], 58.5 nM.

Take “UCUUUCUAUGUAGAUACCAGCAUGUUAUAUUUCUAAUGACAUGAGGAUCACCCAUGUAAAUGCCCUUGGCAGCUGCGUUUUCUUU [SSTHB #5]”: the “apparent KD of MS2 coat protein” value runs as follows: (input ligand: arginine 13.2 mM) 14.2 nM; under setting [1], 20.2 nM; under setting [3], 15.2 nM.

Consider “CGCACAUGAGGAUCACCCAUGUGAGGGUACCGAGGACCGGUACGGCCGCCACUCGCAGGACAUGAGGAUCACCCAUGUGCCGCCG [SSTA DOUBLE!!! :-D #6]”, for which the “apparent KD of MS2 coat protein” value runs as follows: (input ligand: arginine 13.2 mM) 24.3 nM; (input ligand: none) 38.3 nM; under setting [1], 41.9 nM; under setting [2], 44.5 nM; under setting [3], 31 nM.

On to “CACAGUGCGAAAUUGAAACCGCACGAUCCUCGAGGACCGGUACGGCCGCCACUCGCGCGGGUCGUACAUGAGGAUCACCCAUGUC [Zaarmaqu]”, for which the “apparent KD of MS2 coat protein” value came to 71.8 nM (input ligand: arginine 13.2 mM), 351 nM under setting [1] and 869 nM under setting [2].

“AGCGUAUAGACGGAUACCAGCGCCAAUUAACAUGAGGAUCACCCAUGUAGUGUGGGUGGACGCCCUUGGCAGCCGAGUAUAGGUA [Exclusion - Theophylline B / A]”: the “apparent KD of MS2 coat protein” value by setting is: (input ligand: arginine 13.2 mM) 57.3 nM; under setting [1], 274 nM; under setting [3], 250 nM.

For the origin of these results see the supplement of paper PMC9170038.
